Test [1] deals with heterolysin A (H. irregulare TC 32-1).
Test [2] deals with T1, ostreolysin A6 (P. ostreatus) (UniProt P83467).
T1 sequence: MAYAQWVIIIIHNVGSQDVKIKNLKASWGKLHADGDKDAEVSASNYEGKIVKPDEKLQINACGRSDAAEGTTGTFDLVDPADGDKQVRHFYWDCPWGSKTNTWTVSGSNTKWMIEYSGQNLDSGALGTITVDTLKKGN

Regarding “nudolysin B (Δ30NudB) (domain or fragment)”, in the test with nudolysin A (L. nuda), the time of 100% hemolysis of bovine red blood cells, pH 6.0; NudA 1, 0.1 and 0.01 µM, NudA:NudB 10:1 (0.7 to 48.8 min) amounted to 48.8 min; the time of 100% hemolysis of bovine red blood cells, pH 7.0; NudA 1 and 0.1 µM, NudA:NudB 10:1 (0.7 to 11.1 min); at 0.01 µM 100% hemolysis did not occur was found to be 11.1 min; the time of 100% hemolysis of bovine red blood cells, pH 8.0; NudA 1 µM, NudA:NudB 10:1; at 0.1 and 0.01 µM 100% hemolysis did not occur was 2 min.

B1: pleurotolysin B (Δ48PlyB) (domain or fragment)
chain: SQAGDTLNDVIQDPTRRNKLINDNNLLKGIIMGRDGPVPSSRELIVRPDTLRAIINNRATIETTTMEAEFTETLMESNYNSASVKVSAPFITANSEYSESSSFKNTETEKSMYTSSRYLFPQGRIDFTTPDSGFDDVIKLSPQFTSGVQAALAKATGTEKREALQNLFQEYGHVFRTKVHIGGVLSAHTMETFSRSENETEVKQDVKAGLEGAVKGWGGGATAGHGNTQGTITTSQNRKLNVKYIVNGGDYTKIQNTEEWVASTNQSEHWRVIEVTEVTAVADLLPQPIRGQVKDLLKPLLGKWVDVEKVPGLESLPVSVYRPKGAIPAGWFWLGDTADASKALLVKPTLPARSGRNPALTSLHQGSGMTEQPFVDLPQYQYLSTYFGSFAHDTPPGSTLRGLRPDHVLPGRYEMHGDTISTAVYVTRPVDVPFPEDECFDLKSLVRVKLPGSGNPPKPRSALKKSMVLFDSGEK
Consider B1, for which, in test [1], the time of 100% hemolysis of bovine red blood cells, pH 6.0; HetA 1, 0.1 and 0.01 µM, HetA:PlyB 10:1 (0.7 to 9.8 min) stood at 9.8 min; the time of 100% hemolysis of bovine red blood cells, pH 7.0; HetA 1 and 0.1 µM, HetA:PlyB 10:1 (1.3 to 8.2 min); at 0.01 µM 100% hemolysis did not occur is 8.2 min; the time of 100% hemolysis of bovine red blood cells, pH 8.0; HetA 1 and 0.1 µM, HetA:PlyB 10:1 (0.7 to 5.3 min); at 0.01 µM 100% hemolysis did not occur turned out to be 5.3 min. In test [2], this molecule gave a time of 100% hemolysis of bovine red blood cells, pH 6.0; OlyA6 1, 0.1 and 0.01 µM, OlyA6:PlyB 10:1 (0.7 to 2.7 min) of 2.7 min; a time of 100% hemolysis of bovine red blood cells, pH 7.0; OlyA6 1, 0.1 and 0.01 µM, OlyA6:PlyB 10:1 (0.7 to 20.6 min) of 20.6 min; a time of 100% hemolysis of bovine red blood cells, pH 8.0; OlyA6 1, 0.1 and 0.01 µM, OlyA6:PlyB 10:1 (0.7 to 26.4 min) of 26.4 min.

(Values after paper PMC10975569.)
